Results taken from publication PMC7325720 (The Journal of Infectious Diseases, 2019).

Key:
[1] = biological target: the molecule itself; test: crystal structure
[2] = biological target: T1, MBP-CD74 (CD74 ectodomain fused to maltose binding protein), biotinylated (UniProt P04233 73-296, biotin (EZ-Link Sulfo-NHS-LC-Biotinylation kit)); test: BLI
T1 sequence (looked up): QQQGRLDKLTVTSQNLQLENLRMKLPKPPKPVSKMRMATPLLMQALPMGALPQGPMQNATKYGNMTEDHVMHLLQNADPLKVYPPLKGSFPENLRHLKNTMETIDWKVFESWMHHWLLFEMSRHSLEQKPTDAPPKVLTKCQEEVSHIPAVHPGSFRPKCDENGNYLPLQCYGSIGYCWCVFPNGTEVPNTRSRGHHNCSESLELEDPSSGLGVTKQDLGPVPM

B1: Entamoeba histolytica macrophage migration inhibitory factor (Eh-MIF) (natural protein)
chain: MPHALITLSADITEEIKKEIAHESMKILSEVIGKPISYCATQVVTSVGGFGGKIVKSAFIDIKSISGLKGKQEGLSDRYCKLLEQKAGIEGGNIYLNFTEMTGNNWGYDHSTF
For B1, the “stoichiometry N” value [1] was 3 and the Kd [2] was 11.2 nM.

B2: human macrophage migration inhibitory factor (human MIF) (natural protein, UniProt P14174 1-115, looked up)
chain: MPMFIVNTNVPRASVPDGFLSELTQQLAQATGKPPQYIAVHVVPDQLMAFGGSSEPCALCSLHSIGKIGGAQNRSYSKLLCGLLAERLRISPDRVYINYYDMNAANVGWNNSTFA
With B2 the Kd [2] was 18.2 nM.
